In publication PMC7094161:

Columns and labels:
[1] = target: CDC25C substrate peptide of the EKAR construct; test: FRET or BRET; FRET/FLIM: EGFP fluorescence lifetime of EKAR constructs (WW domain and peptide on one chain) in fixed, mounted COS cells; serum in the medium
[2] = target: CDC25C substrate peptide of the EKAR construct; test: FRET or BRET; FRET/FLIM: EGFP fluorescence lifetime of EKAR constructs (WW domain and peptide on one chain) in living COS cells; serum in the medium

Sequence of Pin1 WW domain of the EKAR construct (Q13526 5-39): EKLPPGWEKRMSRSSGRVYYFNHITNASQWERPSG

EGFP fluorescence lifetime [1]: 1.68 ns
EGFP fluorescence lifetime [2]: 2.12 ns
Substance: Pin1 WW domain of the EKAR construct (from UniProt Q13526 5-39) (domain or fragment)
